The assay addresses T1, full-length PfCSP on the surface of transgenic P. berghei sporozoites (Pb-PfCSP) (Plasmodium falciparum, UniProt Q7K740 19-374).
T1 construct: whole, on cells; also called Pb-PfCSP SPZ; Pb-PfCSP SPZ GFP/Luc
The assay can be described thus: flow cytometry on Pb-PfCSP sporozoites, mAb 20 µg/mL, MFI.

T1 sequence (Q7K740 19-374): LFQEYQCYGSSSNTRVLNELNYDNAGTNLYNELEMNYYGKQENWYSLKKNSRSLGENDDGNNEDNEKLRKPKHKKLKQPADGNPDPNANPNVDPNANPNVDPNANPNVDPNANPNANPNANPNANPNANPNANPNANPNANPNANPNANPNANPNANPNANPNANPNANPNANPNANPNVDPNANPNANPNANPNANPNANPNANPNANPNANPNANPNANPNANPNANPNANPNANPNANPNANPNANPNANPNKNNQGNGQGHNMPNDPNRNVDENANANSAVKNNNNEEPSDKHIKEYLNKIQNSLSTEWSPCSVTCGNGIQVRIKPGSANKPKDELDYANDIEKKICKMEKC

B1: CIS43 human monoclonal antibody (antibody, V domains shown)
VH: QVQLVQSGAEVKKPGASVKVSCKASGYTFTSYAIHWVRQAPGQRLEWMGWIKAGNGNTRYSQKFQDRVTITRDTSTTTAYMELSSLRSEDTAVYYCALLTVLTPDDAFDIWGQGTMVTVSS
VL: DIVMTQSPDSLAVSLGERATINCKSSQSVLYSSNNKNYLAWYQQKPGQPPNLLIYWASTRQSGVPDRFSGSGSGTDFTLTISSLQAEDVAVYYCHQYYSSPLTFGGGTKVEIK
notes: also called CIS43 IgG
Regarding B1, the binding result is “binds”.

For the origin of these results see patent publication US20220227853A1 (US Dept. of Health and Human Services, published 2022).
